Measured values: publication PMC7139218, “Structural Basis for Rab8a Recruitment of RILPL2 via LRRK2 Phosphorylation of Switch 2” (Structure(London, England:1993), 2020)
No end group written: not given here.

How the values were obtained:
[1] = molecular target: RILPL2 (Mus musculus) (UniProt Q99LE1); conditions: cited from earlier work
[2] = molecular target: T1, His6-tagged RILPL2 (full length, 1-211) (Homo sapiens (Human), UniProt Q969X0); assay: Ni-agarose pull-down (SDS-PAGE, Coomassie)
T1 chain: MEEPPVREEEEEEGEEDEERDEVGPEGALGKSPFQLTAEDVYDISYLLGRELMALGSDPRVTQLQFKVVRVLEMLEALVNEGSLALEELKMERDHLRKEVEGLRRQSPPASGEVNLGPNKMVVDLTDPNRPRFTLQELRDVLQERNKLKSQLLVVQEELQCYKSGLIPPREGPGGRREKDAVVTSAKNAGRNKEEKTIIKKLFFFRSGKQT

[3] = molecular target: the molecule itself; assay: crystal structure; pRab8(Q67L):His6-RL2 complex, 1:1 molar ratio of protein:peptide, 12 mg/mL; 100 mM HEPES pH 7, 10% PEG4,000, 10% 2-propanol; 1.8 Å
[4] = molecular target: T72 phosphorylated Rab8a(GTP), residues 1-181, Q67L (UniProt P61006); assay: ITC; His6-RILPL2 129-165 (400-600 μM) injected into Rab8a or pRab8a 1-181 (40-60 μM); 10 mM Tris-HCl, 300 mM NaCl, 5 mM MgCl2, 20 mM imidazole, 1 mM DTT; triplicate
T72 phosphorylated Rab8a(GTP), residues 1-181, Q67L, sequence (P61006 1-181 Q67L): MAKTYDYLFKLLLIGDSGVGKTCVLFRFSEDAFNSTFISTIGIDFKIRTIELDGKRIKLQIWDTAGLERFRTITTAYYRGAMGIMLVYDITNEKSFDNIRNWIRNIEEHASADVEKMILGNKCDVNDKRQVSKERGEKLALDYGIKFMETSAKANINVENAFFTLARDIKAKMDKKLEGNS

[5] = molecular target: the molecule itself; assay: SEC-MALS; static light scattering coupled to gel filtration, Superdex 200 (10/300); full-length RILPL2 with uncleaved polyhistidine tag, 500 μL at 1 mg/mL

RILPL2 (Mus musculus), sequence (Q99LE1 whole entry): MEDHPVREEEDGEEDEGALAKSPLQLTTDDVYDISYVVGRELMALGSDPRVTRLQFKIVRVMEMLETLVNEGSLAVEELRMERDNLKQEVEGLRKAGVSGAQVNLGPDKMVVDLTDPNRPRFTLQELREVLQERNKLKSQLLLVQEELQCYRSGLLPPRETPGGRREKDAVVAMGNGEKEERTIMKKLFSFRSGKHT

With Myosin Va (from UniProt Q99104) as the molecule, how does the Kd [1] read?
Its Kd is 300 nM.

B1: globular tail domain (GTD) of myosin Va (1462-1853) (protein)
chain: VNIPRKEKDFQGMLEYKREDEQKLVKNLILELKPRGVAVNLIPGLPAYILFMCVRHADYLNDDQKVRSLLTSTINSIKKVLKKRGDDFETVSFWLSNTCRFLHCLKQYSGEEGFMKHNTSRQNEHCLTNFDLAEYRQVLSDLAIQIYQQLVRVLENILQPMIVSGMLEHETIQGVSGVKPTGLRKRTSSIADEGTYTLDSILRQLNSFHSVMCQHGMDPELIKQVVKQMFYIVGAITLNNLLLRKDMCSWSKGMQIRYNVSQLEEWLRDKNLMNSGAKETLEPLIQAAQLLQVKKKTDDDAEAICSMCNALTTAQIVKVLNLYTPVNEFEERVSVSFIRTIQMRLRDRKDSPQLLMDAKHIFPVTFPFNPSSLALETIQIPASLGLGFIARV
Does B1 bind [2]?
Result: binds

B2: His6-RILPL2 residues 129-165 (phospho-Rab binding domain, minimal RH2 motif) (peptide, UniProt Q969X0 129-165, looked up)
chain: His6-NRPRFTLQELRDVLQERNKLKSQLLVVQEELQCYKSG
notes: Parallel α-helical dimer in the crystal; also called His6-RL2; source: synthetic peptide (Genscript); not shown: His6, N-terminal, kept
For B2, which “stoichiometry N” value [3] is on record?
The value was 2.

And the Kd [4]?
Its Kd is 3300 nM.

B3: His6-tagged RILPL2 (full length, 1-211) (natural protein, human, UniProt Q969X0 1-211, looked up)
chain: MEEPPVREEEEEEGEEDEERDEVGPEGALGKSPFQLTAEDVYDISYLLGRELMALGSDPRVTQLQFKVVRVLEMLEALVNEGSLALEELKMERDHLRKEVEGLRRQSPPASGEVNLGPNKMVVDLTDPNRPRFTLQELRDVLQERNKLKSQLLVVQEELQCYKSGLIPPREGPGGRREKDAVVTSAKNAGRNKEEKTIIKKLFFFRSGKQT
notes: RILPL2, human, full length (1-211), cDNA in pET15b; Dimer in solution by static light scattering coupled to gel filtration; also called full-length RILPL2; source: E. coli, purified (Ni-agarose, gel filtration), polyhistidine tag not removed
For B3, which “stoichiometry N” value [5] is on record?
The value was 2.
